# Measured values from IntAct's records for PubMed 31515488.
# B1: Transmembrane protein 79 (Homo sapiens), Q9BSE2 (parent)
# chain: MTEQETLALLEVKRSDSPEKSSPQALVPNGRQPEGEGGAESPGAESLRVGSSAGSPTAIEGAEDGLDSTVSEAATLPWGTGPQPSAPFPDPPGWRDIEPEPPESEPLTKLEELPEDDANLLPEKAARAFVPIDLQCIERQPQEDLIVRCEAGEGECRTFMPPRVTHPDPTERKWAEAVVRPPGCSCGGCGSCGDREWLRAVASVGAALILFPCLLYGAYAFLPFDVPRLPTMSSRLIYTLRCGVFATFPIVLGILVYGLSLLCFSALRPFGEPRREVEIHRRYVAQSVQLFILYFFNLAVLSTYLPQDTLKLLPLLTGLFAVSRLIYWLTFAVGRSFRGFGYGLTFLPLLSMLMWNLYYMFVVEPERMLTATESRLDYPDHARSASDYRPRPWG
# partner: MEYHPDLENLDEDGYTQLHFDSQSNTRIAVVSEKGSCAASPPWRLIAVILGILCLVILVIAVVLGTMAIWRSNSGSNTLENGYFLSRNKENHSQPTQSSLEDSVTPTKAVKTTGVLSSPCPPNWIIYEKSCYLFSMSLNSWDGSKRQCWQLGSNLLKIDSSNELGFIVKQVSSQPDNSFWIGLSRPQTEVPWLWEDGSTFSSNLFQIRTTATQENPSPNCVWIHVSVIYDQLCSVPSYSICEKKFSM
# B2: Zinc finger protein 512B (Homo sapiens), Q96KM6 (parent)
# chain: MTDPFCVGGRRLPGSSKSGPGKDGSRKEVRLPMLHDPPKMGMPVVRGGQTVPGQAPLCFDPGSPASDKTEGKKKGRPKAENQALRDIPLSLMNDWKDEFKAHSRVKCPNSGCWLEFPSIYGLKYHYQRCQGGAISDRLAFPCPFCEAAFTSKTQLEKHRIWNHMDRPLPASKPGPISRPVTISRPVGVSKPIGVSKPVTIGKPVGVSKPIGISKPVSVGRPMPVTKAIPVTRPVPVTKPVTVSRPMPVTKAMPVTKPITVTKSVPVTKPVPVTKPITVTKLVTVTKPVPVTKPVTVSRPIVVSKPVTVSRPIAISRHTPPCKMVLLTRSENKAPRATGRNSGKKRAADSLDTCPIPPKQARPENGEYGPSSMGQSSAFQLSADTSSGSLSPGSRPSGGMEALKAAGPASPPEEDPERTKHRRKQKTPKKFTGEQPSISGTFGLKGLVKAEDKARVHRSKKQEGPGPEDARKKVPAAPITVSKEAPAPVAHPAPGGPEEQWQRAIHERGEAVCPTCNVVTRKTLVGLKKHMEVCQKLQDALKCQHCRKQFKSKAGLNYHTMAEHSAKPSDAEASEGGEQEERERLRKVLKQMGRLRCPQEGCGAAFSSLMGYQYHQRRCGKPPCEVDSPSFPCTHCGKTYRSKAGHDYHVRSEHTAPPPEEPTDKSPEAEDPLGVERTPSGRVRRTSAQVAVFHLQEIAEDELARDWTKRRMKDDLVPETARLNYTRPGLPTLNPQLLEAWKNEVKEKGHVNCPNDCCEAIYSSVSGLKAHLASCSKGAHLAGKYRCLLCPKEFSSESGVKYHILKTHAENWFRTSADPPPKHRSQDSLVPKKEKKKNLAGGKKRGRKPKERTPEEPVAKLPPRRDDWPPGCRDKGARGSTGRKVGVSKAPEK
# B3: Heterogeneous nuclear ribonucleoprotein R (Homo sapiens), O43390 (parent)
# chain: MANQVNGNAVQLKEEEEPMDTSSVTHTEHYKTLIEAGLPQKVAERLDEIFQTGLVAYVDLDERAIDALREFNEEGALSVLQQFKESDLSHVQNKSAFLCGVMKTYRQREKQGSKVQESTKGPDEAKIKALLERTGYTLDVTTGQRKYGGPPPDSVYSGVQPGIGTEVFVGKIPRDLYEDELVPLFEKAGPIWDLRLMMDPLSGQNRGYAFITFCGKEAAQEAVKLCDSYEIRPGKHLGVCISVANNRLFVGSIPKNKTKENILEEFSKVTEGLVDVILYHQPDDKKKNRGFCFLEYEDHKSAAQARRRLMSGKVKVWGNVVTVEWADPVEEPDPEVMAKVKVLFVRNLATTVTEEILEKSFSEFGKLERVKKLKDYAFVHFEDRGAAVKAMDEMNGKEIEGEEIEIVLAKPPDKKRKERQAARQASRSTAYEDYYYHPPPRMPPPIRGRGRGGGRGGYGYPPDYYGYEDYYDDYYGYDYHDYRGGYEDPYYGYDDGYAVRGRGGGRGGRGAPPPPRGRGAPPPRGRAGYSQRGAPLGPPRGSRGGRGGPAQQQRGRGSRGSRGNRGGNVGGKRKADGYNQPDSKRRQTNNQQNWGSQPIAQQPLQQGGDYSGNYGYNNDNQEFYQDTYGQQWK
# B4: Keratin, type I cytoskeletal 18 (Homo sapiens), P05783 (parent)
# chain: MSFTTRSTFSTNYRSLGSVQAPSYGARPVSSAASVYAGAGGSGSRISVSRSTSFRGGMGSGGLATGIAGGLAGMGGIQNEKETMQSLNDRLASYLDRVRSLETENRRLESKIREHLEKKGPQVRDWSHYFKIIEDLRAQIFANTVDNARIVLQIDNARLAADDFRVKYETELAMRQSVENDIHGLRKVIDDTNITRLQLETEIEALKEELLFMKKNHEEEVKGLQAQIASSGLTVEVDAPKSQDLAKIMADIRAQYDELARKNREELDKYWSQQIEESTTVVTTQSAEVGAAETTLTELRRTVQSLEIDLDSMRNLKASLENSLREVEARYALQMEQLNGILLHLESELAQTRAEGQRQAQEYEALLNIKVKLEAEIATYRRLLEDGEDFNLGDALDSSNSMQTIQKTTTRRIVDGKVVSETNDTKVLRH
# partner: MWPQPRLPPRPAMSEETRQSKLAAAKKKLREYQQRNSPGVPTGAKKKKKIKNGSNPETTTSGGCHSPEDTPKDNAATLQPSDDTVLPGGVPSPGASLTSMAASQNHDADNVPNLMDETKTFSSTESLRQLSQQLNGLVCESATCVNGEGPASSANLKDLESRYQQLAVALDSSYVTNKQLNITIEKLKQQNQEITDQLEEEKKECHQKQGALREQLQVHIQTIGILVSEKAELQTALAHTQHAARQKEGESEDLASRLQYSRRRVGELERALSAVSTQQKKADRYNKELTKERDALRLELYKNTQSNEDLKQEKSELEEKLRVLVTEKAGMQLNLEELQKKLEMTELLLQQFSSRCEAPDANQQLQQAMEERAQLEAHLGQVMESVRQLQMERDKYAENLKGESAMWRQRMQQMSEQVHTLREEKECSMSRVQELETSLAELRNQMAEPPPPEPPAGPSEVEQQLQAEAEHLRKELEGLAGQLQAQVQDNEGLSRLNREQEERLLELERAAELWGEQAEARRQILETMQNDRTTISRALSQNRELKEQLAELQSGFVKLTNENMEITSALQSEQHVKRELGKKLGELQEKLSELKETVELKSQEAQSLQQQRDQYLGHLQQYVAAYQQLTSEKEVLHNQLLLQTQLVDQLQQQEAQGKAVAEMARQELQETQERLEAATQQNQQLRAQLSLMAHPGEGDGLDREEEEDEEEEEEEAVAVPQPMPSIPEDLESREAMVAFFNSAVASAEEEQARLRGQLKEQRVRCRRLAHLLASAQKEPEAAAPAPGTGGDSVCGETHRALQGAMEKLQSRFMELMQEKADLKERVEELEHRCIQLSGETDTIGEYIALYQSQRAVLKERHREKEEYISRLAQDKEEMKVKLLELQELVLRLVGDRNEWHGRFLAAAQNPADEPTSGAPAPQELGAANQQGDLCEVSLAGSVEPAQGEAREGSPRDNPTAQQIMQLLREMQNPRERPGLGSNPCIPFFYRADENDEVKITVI
# B5: Coiled-coil domain-containing protein 33 (Homo sapiens), Q8N5R6-5 (parent)
# chain: MGEPGPPSPPAPKAAPGLIDSFSEMNNYRRAMQKMAEDILSLRRQASILEGENRILRSRLAQQEEEEGQGKASEAQNTVSMKQKLLLSELDMKKLRDRVQHLQNELIRKNDREKELLLLYQAQQPQAALLKQYQGKLQKMKALEETVRHQEKVIEKMERVLEDRLQDRSKPPPLNRQQGKPYTGFPMLSASGLPLGSMGENLPVELYSVLLAENAKLRTELDKNRHQQAPIILQQQALPVDPGELGAGGDLTERLQETHGPGHSECTETLPAQDLLSGTSDKFNLLAKLEHAQSRILSLESQLEDSARRWGREKQDLATRLQEQEKGFRHPSNSIIIEQPVSDPPGVAPRGSGGGAGSHRTPKVTGP
# B6: Cell division cycle 7-related protein kinase (Homo sapiens), O00311 (parent)
# chain: MEASLGIQMDEPMAFSPQRDRFQAEGSLKKNEQNFKLAGVKKDIEKLYEAVPQLSNVFKIEDKIGEGTFSSVYLATAQLQVGPEEKIALKHLIPTSHPIRIAAELQCLTVAGGQDNVMGVKYCFRKNDHVVIAMPYLEHESFLDILNSLSFQEVREYMLNLFKALKRIHQFGIVHRDVKPSNFLYNRRLKKYALVDFGLAQGTHDTKIELLKFVQSEAQQERCSQNKSHIITGNKIPLSGPVPKELDQQSTTKASVKRPYTNAQIQIKQGKDGKEGSVGLSVQRSVFGERNFNIHSSISHESPAVKLMKQSKTVDVLSRKLATKKKAISTKVMNSAVMRKTASSCPASLTCDCYATDKVCSICLSRRQQVAPRAGTPGFRAPEVLTKCPNQTTAIDMWSAGVIFLSLLSGRYPFYKASDDLTALAQIMTIRGSRETIQAAKTFGKSILCSKEVPAQDLRKLCERLRGMDSSTPKLTSDIQGHASHQPAISEKTDHKASCLVQTPPGQYSGNSFKKGDSNSCEHCFDEYNTNLEGWNEVPDEAYDLLDKLLDLNPASRITAEEALLHPFFKDMSL
# partner: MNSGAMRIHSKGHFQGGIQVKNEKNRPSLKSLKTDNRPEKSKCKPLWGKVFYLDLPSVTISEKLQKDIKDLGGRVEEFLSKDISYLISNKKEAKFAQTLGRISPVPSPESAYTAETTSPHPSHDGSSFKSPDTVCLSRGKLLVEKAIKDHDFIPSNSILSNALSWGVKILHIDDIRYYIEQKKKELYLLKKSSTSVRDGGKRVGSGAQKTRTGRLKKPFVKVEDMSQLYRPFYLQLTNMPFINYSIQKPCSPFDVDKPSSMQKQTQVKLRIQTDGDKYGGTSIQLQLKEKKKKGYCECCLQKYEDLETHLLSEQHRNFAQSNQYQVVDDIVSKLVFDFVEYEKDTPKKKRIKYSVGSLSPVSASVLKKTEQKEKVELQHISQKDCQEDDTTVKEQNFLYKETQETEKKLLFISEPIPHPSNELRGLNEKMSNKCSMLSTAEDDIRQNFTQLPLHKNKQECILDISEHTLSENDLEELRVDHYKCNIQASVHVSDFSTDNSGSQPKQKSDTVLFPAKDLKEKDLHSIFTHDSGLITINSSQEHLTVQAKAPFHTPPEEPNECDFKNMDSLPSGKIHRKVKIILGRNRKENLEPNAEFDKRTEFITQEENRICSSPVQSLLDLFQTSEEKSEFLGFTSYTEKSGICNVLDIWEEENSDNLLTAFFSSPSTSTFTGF
# Variants of: B1
# Settings: with clc7a_human CLEC7A
row,effect of a mutation on the interaction,Variant
1,with no effect,MTEQETLALLEVKRSDSPEKSSPQALVPNGRQPEGEGGAESPGAESLRVGSSAGSPTAIEGAEDGLDSTVSEAATLPWGTGPQPSAPFPDPPGWRDIEPEPPESEPLTKLEELPEDDANLLPEKAARAFVPIDLQCIERQPQEDLIVRCEAGEGECRTFMPPRVTHPDPTERKWAEAVVRPPGCSCGGCGSCGDREWLRAVASVGAALILFPCLLYGAYAFLPFDVPRLPTMSSRLIYTLRCGVFATFPIVLGILVYGLSLLCFSALRPFGEPRREVEIHRRYVAQSVQLFILYFFNLAVLSTYLPQDTLKLLPLLTGLFAISRLIYWLTFAVGRSFRGFGYGLTFLPLLSMLMWNLYYMFVVEPERMLTATESRLDYPDHARSASDYRPRPWG [V322I]

# Variants of: B2
# Settings: with fhl3_human FHL3, Q13643
# Sequence of fhl3_human FHL3, Q13643 (Q13643 whole entry): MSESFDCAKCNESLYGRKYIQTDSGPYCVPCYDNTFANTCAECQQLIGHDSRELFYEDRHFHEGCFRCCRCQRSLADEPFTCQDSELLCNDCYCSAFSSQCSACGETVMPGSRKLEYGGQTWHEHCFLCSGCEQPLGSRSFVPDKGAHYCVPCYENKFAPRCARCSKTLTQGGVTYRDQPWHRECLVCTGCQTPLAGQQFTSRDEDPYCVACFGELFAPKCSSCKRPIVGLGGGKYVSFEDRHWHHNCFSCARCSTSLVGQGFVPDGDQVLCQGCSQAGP
row,effect of a mutation on the interaction,Variant
1,with no effect,A408T
2,with no effect,A453T

# Variants of: B2
# Settings: with traf1_human TRAF1, Q13077
# Sequence of traf1_human TRAF1, Q13077 (Q13077 whole entry): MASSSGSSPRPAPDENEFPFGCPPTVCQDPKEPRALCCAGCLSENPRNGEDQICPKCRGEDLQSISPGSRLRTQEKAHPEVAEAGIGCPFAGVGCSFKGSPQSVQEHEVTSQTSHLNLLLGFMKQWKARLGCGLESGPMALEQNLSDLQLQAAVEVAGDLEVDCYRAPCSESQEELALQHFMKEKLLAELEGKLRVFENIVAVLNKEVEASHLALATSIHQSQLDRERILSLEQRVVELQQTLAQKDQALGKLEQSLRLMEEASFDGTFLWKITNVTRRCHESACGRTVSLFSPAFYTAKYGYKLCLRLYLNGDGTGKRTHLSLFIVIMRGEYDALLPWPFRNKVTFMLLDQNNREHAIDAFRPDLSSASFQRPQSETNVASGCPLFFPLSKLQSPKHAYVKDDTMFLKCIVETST
row,effect of a mutation on the interaction,Variant
1,with no effect,A408T
2,with no effect,A453T

# Variants of: B3
# Settings: with anm1_human PRMT1, Q99873
# Sequence of anm1_human PRMT1, Q99873 (Q99873 whole entry, looked up): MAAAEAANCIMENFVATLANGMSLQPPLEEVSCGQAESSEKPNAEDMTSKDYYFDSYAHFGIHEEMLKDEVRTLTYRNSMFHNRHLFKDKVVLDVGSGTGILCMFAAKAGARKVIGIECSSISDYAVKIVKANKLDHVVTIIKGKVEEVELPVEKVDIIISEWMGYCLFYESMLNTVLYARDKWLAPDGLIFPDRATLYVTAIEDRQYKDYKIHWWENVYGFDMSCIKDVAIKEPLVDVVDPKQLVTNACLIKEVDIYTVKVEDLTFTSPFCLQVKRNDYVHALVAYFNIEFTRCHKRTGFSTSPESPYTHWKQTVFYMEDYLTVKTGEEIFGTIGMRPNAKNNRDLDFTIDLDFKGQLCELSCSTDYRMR
row,effect of a mutation on the interaction,Variant
1,with no effect,S530T

# Variants of: B4
# Settings: with goga2_human GOLGA2, Q08379
row,effect of a mutation on the interaction,Variant
1,with no effect,MSFTTRSTFSTNYRSLGSVQAPSYGARPVSSAASVYAGAGGSGSRISVSRSTSFRGGMGSGGLATGIAGGLAGMGGIQNEKETMQSLNDRLASYLDRVRSLETENRRLESKIREHLEKKGPQVRDWSHYFKIIEDLRAQIFANTVDNARIVLQIDNAHLAADDFRVKYETELAMRQSVENDIHGLRKVIDDTNITRLQLETEIEALKEELLFMKKNHEEEVKGLQAQIASSGLTVEVDAPKSQDLAKIMADIRAQYDELARKNREELDKYWSQQIEESTTVVTTQSAEVGAAETTLTELRRTVQSLEIDLDSMRNLKASLENSLREVEARYALQMEQLNGILLHLESELAQTRAEGQRQAQEYEALLNIKVKLEAEIATYRRLLEDGEDFNLGDALDSSNSMQTIQKTTTRRIVDGKVVSETNDTKVLRH [R158H]
2,with no effect,MSFTTRSTFSTNYRSLGSVQAPSYGARPVSSAASVYAGAGGSGSRISVSRSTSFRGGMGSGGLATGIAGGLAGMGGIQNEKETMQSLNDRLASYLDRVRSLETENRRLESKIREHLEKKGPQVRDWSHYFKIIEDLRAQIFANTVDNARIVLQIDNARLAADDFRVKYETELAMRQSVENDIHGLRKVIDDTNITRLQLETEIEALKEELLFMKKNHEEEVKGLQAQIATSGLTVEVDAPKSQDLAKIMADIRAQYDELARKNREELDKYWSQQIEESTTVVTTQSAEVGAAETTLTELRRTVQSLEIDLDSMRNLKASLENSLREVEARYALQMEQLNGILLHLESELAQTRAEGQRQAQEYEALLNIKVKLEAEIATYRRLLEDGEDFNLGDALDSSNSMQTIQKTTTRRIVDGKVVSETNDTKVLRH [S230T]

# Variants of: B5
# Settings: with ptk6_human PTK6, Q13882
row,effect of a mutation on the interaction,Variant
1,with no effect,S73N

# Variants of: B5
# Settings: with bccip_human BCCIP
row,effect of a mutation on the interaction,Variant
1,with no effect,S73N

# Variants of: B6
# Settings: with dbf4a_human DBF4, Q9UBU7
row,effect of a mutation on the interaction,Variant
1,with no effect,K416T
